According to publication PMC8775935, “Chebulinic Acid Suppresses Adipogenesis in 3T3-L1 Preadipocytes by Inhibiting PPP1CB Activity” (International Journal of Molecular Sciences, 2022):

Substrate: Cc1cc(=O)oc2c(F)c(OP(=O)(O)O)c(F)cc12
Experiment: enzyme kinetics, fluorescence of DiFMU product; KM
Type: biochemical, Homo sapiens
Conditions: Mn2+ ([…] MnCl2 in buffer)

B1: protein phosphatase-1 catalytic subunit beta (PPP1CB) (Homo sapiens) (protein)
chain: MADGELNVDSLITRLLEVRGCRPGKIVQMTEAEVRGLCIKSREIFLSQPILLELEAPLKICGDIHGQYTDLLRLFEYGGFPPEANYLFLGDYVDRGKQSLETICLLLAYKIKYPENFFLLRGNHECASINRIYGFYDECKRRFNIKLWKTFTDCFNCLPIAAIVDEKIFCCHGGLSPDLQSMEQIRRIMRPTDVPDTGLLCDLLWSDPDKDVQGWGENDRGVSFTFGADVVSKFLNRHDLDLICRAHQVVEDGYEFFAKRQLVTLF
B1 gave a Km of 186.2 µM, a Vmax of 3.4 µM/min and a kcat of 38.3 s⁻¹. The kcat/Km was 210000 M⁻¹ s⁻¹.
